Experimental data reported in patent publication US20250387465A1.

Columns and labels:
[1] = target: ferritin-PreF fusion protein RSV-PreF-A-NP (respiratory syncytial virus (Pre-F part); species of the ferritin not stated); experiment: ELISA with F protein antibody after 1 h at pH 3.8, pH 10, 50 C or 70 C
[2] = target: ferritin-PreF fusion protein RSV-PreF-B-NP (respiratory syncytial virus (Pre-F part); species of the ferritin not stated); experiment: as above
[3] = target: ferritin-PreF fusion protein RSV-PreF-C-NP (respiratory syncytial virus (Pre-F part); species of the ferritin not stated); experiment: as above
[4] = target: ferritin-PreF fusion protein RSV-PreF-D-NP (respiratory syncytial virus (Pre-F part); species of the ferritin not stated); experiment: as above
[5] = target: ferritin-PreF fusion protein RSV-PreF-E-NP (respiratory syncytial virus (Pre-F part); species of the ferritin not stated); experiment: as above
[6] = target: ferritin-PreF fusion protein RSV-PreF-F-NP (respiratory syncytial virus (Pre-F part); species of the ferritin not stated); experiment: as above
[7] = target: ferritin-PreF fusion protein RSV-PreF-G-NP (respiratory syncytial virus (Pre-F part); species of the ferritin not stated); experiment: as above
[8] = target: ferritin-PreF fusion protein RSV-PreF-H-NP (respiratory syncytial virus (Pre-F part); species of the ferritin not stated); experiment: as above
[9] = target: ferritin-PreF fusion protein RSV-PreF-C-NP (respiratory syncytial virus (Pre-F part); species of the ferritin not stated); experiment: ELISA, fusion protein coated, F protein antibody 1:1500 as primary; protein kept 1 h at pH 7.4, 25 C (untreated reference); mean of 10- to 10000-fold dilutions
[10] = target: ferritin-PreF fusion protein RSV-PreF-C-NP (respiratory syncytial virus (Pre-F part); species of the ferritin not stated); experiment: ELISA, fusion protein coated, F protein antibody 1:1500 as primary; protein kept 1 h at pH 10, 25 C; against untreated protein; mean of 10- to 10000-fold dilutions
[11] = target: ferritin-PreF fusion protein RSV-PreF-C-NP (respiratory syncytial virus (Pre-F part); species of the ferritin not stated); experiment: ELISA, fusion protein coated, F protein antibody 1:1500 as primary; protein kept 1 h at 50 C, pH 7.4; against untreated protein; mean of 10- to 10000-fold dilutions
[12] = target: ferritin-PreF fusion protein RSV-PreF-C-NP (respiratory syncytial virus (Pre-F part); species of the ferritin not stated); experiment: ELISA, fusion protein coated, F protein antibody 1:1500 as primary; protein kept 1 h at 70 C, pH 7.4; against untreated protein; mean of 10- to 10000-fold dilutions
[13] = target: ferritin-PreF fusion protein RSV-PreF-C-NP (respiratory syncytial virus (Pre-F part); species of the ferritin not stated); experiment: ELISA, fusion protein coated, F protein antibody 1:1500 as primary; protein kept 1 h at pH 3.8, 25 C; against untreated protein; mean of 10- to 10000-fold dilutions

## F protein antibody (PujianBiotech (Wuhan), Cat #62814)
[1]
  antigen-binding activity retained against the original untreated protein: > 75%
[2]
  antigen-binding activity retained against the original untreated protein: > 75%
[3]
  antigen-binding activity retained against the original untreated protein: > 75%
[4]
  antigen-binding activity retained against the original untreated protein: > 75%
[5]
  antigen-binding activity retained against the original untreated protein: > 75%
[6]
  antigen-binding activity retained against the original untreated protein: > 75%
[7]
  antigen-binding activity retained against the original untreated protein: > 75%
[8]
  antigen-binding activity retained against the original untreated protein: > 75%
[9]
  Percentage of ELISA Signal Intensity Retained After Physical Stress Challenges: 100%
[10]
  Percentage of ELISA Signal Intensity Retained After Physical Stress Challenges: 83.6%
[11]
  Percentage of ELISA Signal Intensity Retained After Physical Stress Challenges: 91.2%
[12]
  Percentage of ELISA Signal Intensity Retained After Physical Stress Challenges: 77.1%
[13]
  Percentage of ELISA Signal Intensity Retained After Physical Stress Challenges: 77.3%
